The values below come from paper PMC9918506, “Structural insights into pathogenic mechanism of hypohidrotic ectodermal dysplasia caused by ectodysplasin A variants” (Nature Communications, 2023).

T1: EDA·A1 TNF homology domain (EDA·A1THD, residues 233-391) (human, UniProt Q92838 233-391)
T1 construct: ectodysplasin A, splice form EDA·A1, human, TNF homology domain, residues 233-391; MBP removed with 3C protease; codon-optimised cDNA in pMAL-c2x; Trimer in the crystal structure; also called EDATHD; ectodysplasin A; source: E. coli BL21 CodonPlus (DE3), purified (amylose beads, Superdex 200, Mono-S, Superdex 200 increase); not shown: MBP, N-terminal, cleaved
T1 sequence (looked up): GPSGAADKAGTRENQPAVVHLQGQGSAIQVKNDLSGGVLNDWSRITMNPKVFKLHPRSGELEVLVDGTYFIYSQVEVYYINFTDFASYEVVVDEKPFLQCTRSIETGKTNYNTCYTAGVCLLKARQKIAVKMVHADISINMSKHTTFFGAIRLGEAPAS

B1: EDAR cysteine-rich domains (EDAR_(CRDS), residues 30–150), MBP tag removed (domain or fragment, human)
chain: GGSGGSGGSGGSNCGENEYYNQTTGLCQECPPCGPGEEPYLSCGYGTKDEDYGCVPCPAEKFSKGGYQICRRHKDCEGFFRATVLTPGDMENDAECGPCLPGYYMLENRPRNIYGMVCYSCLLAPPNTKECVG
notes: EDAR (ectodysplasin A receptor), human, cysteine-rich domains CRD1-CRD3, residues 30-150; Construct: EDAR signal peptide (residues 1-28), MBP, 3C site, linker, EDAR 30-150; That the linker stays on the protein after 3C cleavage follows only from the order in which the methods list the elements; also called ectodomains of EDAR; source: Hi5 insect cells (baculovirus), secreted, purified (amylose, …)
B2: EDA·A1 TNF homology domain (EDA·A1THD, residues 233–391), wild type (domain or fragment, human, UniProt Q92838 233-391, looked up)
chain: T1 sequence (looked up)
notes: ectodysplasin A, splice form EDA·A1 (with Val307-Glu308), human, THD residues 233-391; Optimized cDNA in pMAL-c2x; MBP removed with 3C protease; Trimer in the crystal structure; also called WT EDA·A1THD; ectodysplasin A THD; source: E. coli BL21 CodonPlus (DE3), purified (amylose, Superdex 200, 3C cleavage, Mono-S, Superdex 200); not shown: MBP, N-terminal, cleaved
B3: EDAR cysteine-rich domains (EDAR_(CRDS), residues 30-150) (domain or fragment, human, UniProt Q9UNE0 30-150, looked up)
chain: NCGENEYYNQTTGLCQECPPCGPGEEPYLSCGYGTKDEDYGCVPCPAEKFSKGGYQICRRHKDCEGFFRATVLTPGDMENDAECGPCLPGYYMLENRPRNIYGMVCYSCLLAPPNTKECVG
notes: EDAR, human, N-terminal cysteine-rich domains, residues 30-150; MBP removed with 3C protease; also called EDAR ectodomain; source: Hi5 insect cells (baculovirus), secreted, purified (amylose beads, Mono-Q, Superdex 200); not shown: MBP, N-terminal, cleaved

The target of series [1] is EDA·A1THD (residues 233–391) R276C (human, UniProt Q92838 233-391, R276C). Nature of the series: SPR. Background: In SPR one partner is held on a chip, and binding of the other changes the refractive index at the surface.
Series [2] addresses B2. The series can be described thus: SPR; WT and mutant EDA·A1THD immobilised on CM5 chips, EDAR_(CRDS) serially diluted and injected; Biacore 8K; 10 mM HEPES pH 7.5, 150 mM NaCl, 3 mM EDTA, 25 °C; steady-state analysis at equilibrium. As to conditions: both partners purified.
Series [3] concerns the molecule itself. Nature of the series: crystal structure; EDA·A1THD and EDAR_(CRDS) mixed at a molar ratio of 1:1; crystals in 25% PEG-6000, 0.1 M BICINE pH 9.0, 4 °C; 2.8 Å.
Series [4] concerns the target T1, EDA·A1 TNF homology domain (EDA·A1THD, …). Nature of the series: SEC; gel filtration on a Superdex 200 analytical column, fractions on SDS-PAGE; EDA·A1THD alone, EDAR_(CRDS) alone and the mixture. The following applies: both partners purified.

The Kd is a measure of binding affinity in units of concentration. Broadly, the stoichiometry N is a count of units in the complex or per binding partner.

With B1, the Kd in series [1] was 35.9 nM; in series [2], 18.5 nM.
As for B2, in series [3], the “stoichiometry N” value was determined as 3.
As for B3, the binding result in series [4] is “binds”.
